The record followed here is patent US7569660.

The target in one series is Rnq1 (S. cerevisiae) (UniProt P25367).
For a further series, the target named is yeast Hsp104 protein (UniProt P31539).
Sequence of yeast Hsp104 protein (P31539 whole entry): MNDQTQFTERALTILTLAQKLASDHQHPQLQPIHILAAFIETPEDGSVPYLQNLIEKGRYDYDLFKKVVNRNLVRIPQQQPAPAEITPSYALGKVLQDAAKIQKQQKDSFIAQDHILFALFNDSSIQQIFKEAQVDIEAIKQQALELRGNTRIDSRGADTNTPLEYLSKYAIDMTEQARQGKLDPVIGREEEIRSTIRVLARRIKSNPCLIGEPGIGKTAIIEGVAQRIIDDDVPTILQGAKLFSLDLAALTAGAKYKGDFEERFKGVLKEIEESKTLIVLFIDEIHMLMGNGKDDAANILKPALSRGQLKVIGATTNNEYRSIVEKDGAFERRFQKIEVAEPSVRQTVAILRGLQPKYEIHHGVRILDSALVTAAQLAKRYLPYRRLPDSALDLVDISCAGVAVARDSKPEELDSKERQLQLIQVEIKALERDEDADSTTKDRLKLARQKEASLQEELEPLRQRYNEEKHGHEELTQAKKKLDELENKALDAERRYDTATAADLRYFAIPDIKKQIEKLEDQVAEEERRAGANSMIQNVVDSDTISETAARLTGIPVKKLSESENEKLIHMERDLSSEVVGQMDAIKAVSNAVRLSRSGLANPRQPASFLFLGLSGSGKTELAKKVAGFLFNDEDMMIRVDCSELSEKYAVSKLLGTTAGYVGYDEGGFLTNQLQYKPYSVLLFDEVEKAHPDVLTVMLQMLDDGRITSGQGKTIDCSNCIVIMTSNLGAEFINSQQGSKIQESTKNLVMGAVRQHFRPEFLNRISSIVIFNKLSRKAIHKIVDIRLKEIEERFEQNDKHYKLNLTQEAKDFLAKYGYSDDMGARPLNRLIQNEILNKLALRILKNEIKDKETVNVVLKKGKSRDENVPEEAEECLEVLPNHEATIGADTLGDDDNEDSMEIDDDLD

For the substance Rnq1 (from UniProt P25367 1-405), in the series with Rnq1 (S. cerevisiae), the lag time of Thioflavin T fluorescence increase, seeded with 2% preformed fibers stood at 4.3 h and the lag time of Thioflavin T fluorescence increase, unseeded came out at 6.4 h.

In the case of aldolase, the “ATPase activity of Hsp104 (released phosphate, Malachite Green)” value with yeast Hsp104 protein is on record as “did not”.
